Source: patent US20240391991A1, “MODULATION OF WNT SIGNALLING IN PULMONARY DISORDERS” (Surrozen Operating, Inc., priority 2021, published 2024)
Entries after “also recorded” stand apart in the source; their conditions may differ.

How the values were obtained:
Assay type in all cases: cell-based
human AT2 cell organoid [1] = experiment: Human AT2 cell organoid growth, CellTiter Glo assay; conditions: for self-renewal and expansion of human AT2 cells: summary of organoid results
Protocol: For ex vivo studies, 3D organoid cultures (see, e.g., Zacharias, W. et al. (2018) Nature 555:251-257 and Barkauskas et al. (2017) Development 144:986-997) were constructed by combining primary human lung fibroblasts from healthy, pulmonary fibrosis, or COPD patients with alveolar epithelial cells (AT2 and AEP cells) from patients. Organoids were cultured in SAGM medium with growth factor free Matrigel. The Wnt antagonist and agonist were added in a sequential or concurrent manner to determine the effect on the fibroblast/myofibroblast proliferation, matrix production, alveolar epithelial cell proliferation and AT1/AT2 cell fate trans-differentiation. Alveolar organoids can also be cultured directly from human distal lung cells including purified AT2 cells (Kobayashi et al., (2020) supra).
(§1) In all of the AT2 cell organoid experiments, the Wnt signaling inhibitor, C59, was used to prevent endogenous secretion of Wnt ligands. […] AT2 cell organoid growth was assessed with the CellTiter Glo assay.

human AT2 cell organoid [2] = experiment: Human AT2 organoid size (diameter, microscopy); conditions: in the absence of RSPO
[3] = tested on: mouse AT2 organoid cultures; experiment: Mouse AT2 cell organoid expansion, CellTiter-Glo assay; conditions: SWAP in combination with RSPO2; C59 present; FIG. 9
Protocol: as §1

B1: SWAP2: FZD1,2,7-specific Wnt agonist; anti-FZD antibody with LRP6 binder; heavy/light chains SEQ ID NO: 5 and 6 (antibody)
heavy: EVQLVESGGGLVQPGGSLRLSCAASGFTFTSYYISWVRQAPGKGLEWVAEISPYSGSTYYADSVKGRFTISADTSKNTAYLQMNSLRAEDTAVYYCALRARPPIRLHPRGSVMDYWGQGTLVTVSSGGGGSGGGGSGGGGSEVQLVESGGGLVQPGGSLRLSCAASGFNISSSYIHWVRQAPGKGLEWVAYIYSSYGSTYYADSVKGRFTISADTSKNTAYLQMNSLRAEDTAVYYCARASWYALDYWGQGTLVTVSSASTKGPSVFPLAPSSKSTSGGTAALGCLVKDYFPEPVTVSWNSGALTSGVHTFPAVLQSSGLYSLSSVVTVPSSSLGTQTYICNVNHKPSNTKVDKKVEPKSCDKTHTCPPCPAPEAAGGPSVFLFPPKPKDTLMISRTPEVTCVVVDVSHEDPEVKFNWYVDGVEVHNAKTKPREEQYNSTYRVVSVLTVLHQDWLNGKEYKCKVSNKALGAPIEKTISKAKGQPREPQVYTLPPSREEMTKNQVSLTCLVKGFYPSDIAVEWESNGQPENNYKTTPPVLDSDGSFFLYSKLTVDKSRWQQGNVFSCSVMHEALHNHYTQKSLSLSPGK
light: DIQMTQSPSSLSASVGDRVTITCRASQDVSTAVAWYQQKPGKAPKLLIYSASFLYSGVPSRFSGSGSGTDFTLTISSLQPEDFATYYCQQSYTTPPTFGQGTKVEIKGGGGSGGGGSGGGGSDIQMTQSPSSLSASVGDRVTITCRASQSVSSAVAWYQQKPGKAPKLLIYSASSLYSGVPSRFSGSRSGTDFTLTISSLQPEDFATYYCQQYWYGVAPITFGQGTKVEIKRTVAAPSVFIFPPSDEQLKSGTASVVCLLNNFYPREAKVQWKVDNALQSGNSQESVTEQDSKDSTYSLSSTLTLSKADYEKHKVYACEVTHQGLSSPVTKSFNRGEC
- effectiveness on human AT2 organoid expansion versus Chir99021 (human AT2 cell organoid [1]; 10 nM concentration, in the absence of RSPO, FIG. 8): more effective than the small molecule Wnt pathway activator, Chir99021
- human AT2 organoid culture outgrowth/viability (CellTiter Glo) (human AT2 cell organoid [1]; SWAP alone, in the absence of RSPO, C59 present, FIG. 8): induced human AT2 organoid culture outgrowth/viability as assessed by the CellTiter Glo assay in a concentration-dependent manner; also recorded: induce human AT2 cell organoid expansion alone (in the absence of RSPO) in a dose-dependent manner
- self-renewal and expansion of human AT2 cells (human AT2 cell organoid [1]): promotes the self-renewal and expansion of human AT2 cells
- human AT2 cell organoid growth as organoid size (diameter) (human AT2 cell organoid [2]; C59 present, FIG. 6): expand AT2 organoids
- numbers of organoids and organoid size by microscopy (human AT2 cell organoid [2]; FIG. 8): increased numbers of organoids and organoid size
- expansion of mouse AT2 organoid cultures (CellTiter-Glo) [3]: led to the expansion of mouse AT2 organoid cultures

B2: SWAP1: FZD-1,2,5,7,8-specific Wnt agonist; anti-FZD antibody with LRP6 binder; heavy/light chains SEQ ID NO: 3 and 4 (antibody)
heavy: EVQLVESGGGLVQPGGSLRLSCAASGFTFTSYYISWVRQAPGKGLEWVAEISPYSGSTYYADSVKGRFTISADTSKNTAYLQMNSLRAEDTAVYYCALRARPPIRLHPRGSVMDYWGQGTLVTVSSGGGGSGGGGSGGGGSEVQLVESGGGLVQPGGSLRLSCAASGFTFSHYTLSWVRQAPGKGLEWVSVISGDGSYTYYADSVKGRFTISSDNSKNTLYLQMNSLRAEDTAVYYCARNFIKYVFANWGQGTLVTVSSASTKGPSVFPLAPSSKSTSGGTAALGCLVKDYFPEPVTVSWNSGALTSGVHTFPAVLQSSGLYSLSSVVTVPSSSLGTQTYICNVNHKPSNTKVDKKVEPKSCDKTHTCPPCPAPEAAGGPSVFLFPPKPKDTLMISRTPEVTCVVVDVSHEDPEVKFNWYVDGVEVHNAKTKPREEQYNSTYRVVSVLTVLHQDWLNGKEYKCKVSNKALGAPIEKTISKAKGQPREPQVYTLPPSREEMTKNQVSLTCLVKGFYPSDIAVEWESNGQPENNYKTTPPVLDSDGSFFLYSKLTVDKSRWQQGNVFSCSVMHEALHNHYTQKSLSLSPGK
light: DIQMTQSPSSLSASVGDRVTITCRASQDVSTAVAWYQQKPGKAPKLLIYSASFLYSGVPSRFSGSGSGTDFTLTISSLQPEDFATYYCQQSYTTPPTFGQGTKVEIKGGGGSGGGGSGGGGSDIELTQPPSVSVAPGQTARISCSGDNIGSFYVHWYQQKPGQAPVLVIYDKSNRPSGIPERFSGSNSGNTATLTISGTQAEDEADYYCQSYANTLSLVFGGGTKLTVLGQPKAAPSVTLFPPSSEELQANKATLVCLISDFYPGAVTVAWKADSSPVKAGVETTTPSKQSNNKYAASSYLSLTPEQWKSHRSYSCQVTHEGSTVEKTVAPTECS
- human AT2 cell organoid growth (CellTiter Glo), compared with Chir99021 (human AT2 cell organoid [1]; SWAP in combination with RSPO1, C59 present, FIGS. 5A and 5B): enhancement of human AT2 cell organoid growth that surpassed the growth observed upon treatment with the small molecule Wnt signaling activator, Chir99021; also recorded: more effective than the small molecule, CHIR99021
- self-renewal and expansion of human AT2 cells (human AT2 cell organoid [1]): promotes the self-renewal and expansion of human AT2 cells
- expansion of mouse AT2 organoid cultures (CellTiter-Glo) [3]: led to the expansion of mouse AT2 organoid cultures
